This experiment addresses recombinant human IL-8, (ser-IL-8)72 (human, UniProt P10145 28-99). In words: inhibition of 125I-IL-8 binding to neutrophils.

B1: humanized 6G425 F(ab)-9 (humanized 6G4V11 Fab) (Fab, V domains shown)
VH: EVQLVQSGGGLVQPGGSLRLSCAASGYSFSSHYMHWVRQAPGKGLEWVGYIDPSNGETTYNQKFKGRFTLSRDNSKNTAYLQMNSLRAEDTAVYYCARGDYRYNGDWFFDVWGQGTLVTVSS
VL: DIQMTQSPSSLSASVGDRVTITCRSSQSLVHGIGNTYLHWYQQKPGKAPKLLIYKVSNRFSGVPSRFSGSGSGTDFTLTISSLQPEDFATYYCSQSTHVPLTFGQGTKVEIKR
For orientation: IC50 means the concentration that gives 50% inhibition. Regarding B1, the IC50 came out at 4.9 nM.

Values taken from patent publication US7122636.
